# Test results: publication PMC8567202, “Phosphoinositide-binding activity of Smad2 is essential for its function in TGF-β signaling” (The Journal of Biological Chemistry, 2021)
# B1: Smad2-W422A: W422A mutant of full-length Smad2; specific PI(4,5)P2 binding-compromised (protein)
# chain: MSSILPFTPPVVKRLLGWKKSAGGSGGAGGGEQNGQEEKWCEKAVKSLVKKLKKTGRLDELEKAITTQNCNTKCVTIPSTCSEIWGLSTANTVDQWDTTGLYSFSEQTRSLDGRLQVSHRKGLPHVIYCRLWRWPDLHSHHELKAIENCEYAFNLKKDEVCVNPYHYQRVETPVLPPVLVPRHTEILTELPPLDDYTHSIPENTNFPAGIEPQSNYIPETPPPGYISEDGETSDQQLNQSMDTGSPAELSPTTLSPVNHSLDLQPVTYSEPAFWCSIAYYELNQRVGETFHASQPSLTVDGFTDPSNSERFCLGLLSNVNRNATVEMTRRHIGRGVRLYYIGGEVFAECLSDSAIFVQSPNCNQRYGWHPATVCKIPPGCNLKIFNNQEFAALLAQSVNQGFEAVYQLTRMCTIRMSFVKGAGAEYRRQTVTSTPCWIELHLNGPLQWLDKVLTQMGSPSVRCSSMS
# modifications: left off: His6, N-terminal, state not stated
# B2: Smad2- R427A/R428A: double mutant of full-length Smad2; PI(4,5)P2 and TβRI binding-compromised (protein)
# chain: MSSILPFTPPVVKRLLGWKKSAGGSGGAGGGEQNGQEEKWCEKAVKSLVKKLKKTGRLDELEKAITTQNCNTKCVTIPSTCSEIWGLSTANTVDQWDTTGLYSFSEQTRSLDGRLQVSHRKGLPHVIYCRLWRWPDLHSHHELKAIENCEYAFNLKKDEVCVNPYHYQRVETPVLPPVLVPRHTEILTELPPLDDYTHSIPENTNFPAGIEPQSNYIPETPPPGYISEDGETSDQQLNQSMDTGSPAELSPTTLSPVNHSLDLQPVTYSEPAFWCSIAYYELNQRVGETFHASQPSLTVDGFTDPSNSERFCLGLLSNVNRNATVEMTRRHIGRGVRLYYIGGEVFAECLSDSAIFVQSPNCNQRYGWHPATVCKIPPGCNLKIFNNQEFAALLAQSVNQGFEAVYQLTRMCTIRMSFVKGWGAEYAAQTVTSTPCWIELHLNGPLQWLDKVLTQMGSPSVRCSSMS
# modifications: left off: His6, N-terminal, state not stated
# B3: Smad2 WT: bacterially expressed full-length Smad2 wild-type (protein)
# chain: MSSILPFTPPVVKRLLGWKKSAGGSGGAGGGEQNGQEEKWCEKAVKSLVKKLKKTGRLDELEKAITTQNCNTKCVTIPSTCSEIWGLSTANTVDQWDTTGLYSFSEQTRSLDGRLQVSHRKGLPHVIYCRLWRWPDLHSHHELKAIENCEYAFNLKKDEVCVNPYHYQRVETPVLPPVLVPRHTEILTELPPLDDYTHSIPENTNFPAGIEPQSNYIPETPPPGYISEDGETSDQQLNQSMDTGSPAELSPTTLSPVNHSLDLQPVTYSEPAFWCSIAYYELNQRVGETFHASQPSLTVDGFTDPSNSERFCLGLLSNVNRNATVEMTRRHIGRGVRLYYIGGEVFAECLSDSAIFVQSPNCNQRYGWHPATVCKIPPGCNLKIFNNQEFAALLAQSVNQGFEAVYQLTRMCTIRMSFVKGWGAEYRRQTVTSTPCWIELHLNGPLQWLDKVLTQMGSPSVRCSSMS
# modifications: left off: His6, N-terminal, state not stated
# notes: bacterially expressed full-length Smad2 wild-type
# B4: Smad2-Y426A: Y426A mutant of full-length Smad2; specific PI(4,5)P2 binding-compromised (protein)
# chain: MSSILPFTPPVVKRLLGWKKSAGGSGGAGGGEQNGQEEKWCEKAVKSLVKKLKKTGRLDELEKAITTQNCNTKCVTIPSTCSEIWGLSTANTVDQWDTTGLYSFSEQTRSLDGRLQVSHRKGLPHVIYCRLWRWPDLHSHHELKAIENCEYAFNLKKDEVCVNPYHYQRVETPVLPPVLVPRHTEILTELPPLDDYTHSIPENTNFPAGIEPQSNYIPETPPPGYISEDGETSDQQLNQSMDTGSPAELSPTTLSPVNHSLDLQPVTYSEPAFWCSIAYYELNQRVGETFHASQPSLTVDGFTDPSNSERFCLGLLSNVNRNATVEMTRRHIGRGVRLYYIGGEVFAECLSDSAIFVQSPNCNQRYGWHPATVCKIPPGCNLKIFNNQEFAALLAQSVNQGFEAVYQLTRMCTIRMSFVKGWGAEARRQTVTSTPCWIELHLNGPLQWLDKVLTQMGSPSVRCSSMS
# modifications: left off: His6, N-terminal, state not stated
# B5: Smad2-K420A: K420A mutant of full-length Smad2; predominantly TβRI binding-compromised (protein)
# chain: MSSILPFTPPVVKRLLGWKKSAGGSGGAGGGEQNGQEEKWCEKAVKSLVKKLKKTGRLDELEKAITTQNCNTKCVTIPSTCSEIWGLSTANTVDQWDTTGLYSFSEQTRSLDGRLQVSHRKGLPHVIYCRLWRWPDLHSHHELKAIENCEYAFNLKKDEVCVNPYHYQRVETPVLPPVLVPRHTEILTELPPLDDYTHSIPENTNFPAGIEPQSNYIPETPPPGYISEDGETSDQQLNQSMDTGSPAELSPTTLSPVNHSLDLQPVTYSEPAFWCSIAYYELNQRVGETFHASQPSLTVDGFTDPSNSERFCLGLLSNVNRNATVEMTRRHIGRGVRLYYIGGEVFAECLSDSAIFVQSPNCNQRYGWHPATVCKIPPGCNLKIFNNQEFAALLAQSVNQGFEAVYQLTRMCTIRMSFVAGWGAEYRRQTVTSTPCWIELHLNGPLQWLDKVLTQMGSPSVRCSSMS
# modifications: left off: His6, N-terminal, state not stated
# B6: Smad2-E425K: charge-reversal mutant of full-length Smad2; PI(4,5)P2 and TβRI binding-enhanced (protein)
# chain: MSSILPFTPPVVKRLLGWKKSAGGSGGAGGGEQNGQEEKWCEKAVKSLVKKLKKTGRLDELEKAITTQNCNTKCVTIPSTCSEIWGLSTANTVDQWDTTGLYSFSEQTRSLDGRLQVSHRKGLPHVIYCRLWRWPDLHSHHELKAIENCEYAFNLKKDEVCVNPYHYQRVETPVLPPVLVPRHTEILTELPPLDDYTHSIPENTNFPAGIEPQSNYIPETPPPGYISEDGETSDQQLNQSMDTGSPAELSPTTLSPVNHSLDLQPVTYSEPAFWCSIAYYELNQRVGETFHASQPSLTVDGFTDPSNSERFCLGLLSNVNRNATVEMTRRHIGRGVRLYYIGGEVFAECLSDSAIFVQSPNCNQRYGWHPATVCKIPPGCNLKIFNNQEFAALLAQSVNQGFEAVYQLTRMCTIRMSFVKGWGAKYRRQTVTSTPCWIELHLNGPLQWLDKVLTQMGSPSVRCSSMS
# modifications: left off: His6, N-terminal, state not stated
# Tested on: TβRI L45 loop region peptide (F-Ahx-ADNKDNGT)
# Assay: Fluorescence anisotropy binding to TβRI L45 peptide
# Settings: for Kd: 20 mM Tris, pH 7.9, 160 mM NaCl, 10-min incubation, average ±S.D., n = 3
# From the text: However, this tentative assignment has been confirmed neither by a high-resolution structure of the Smad2-TβRI complex nor by a quantitative and systematic binding study, leaving uncertainty about the exact nature of the Smad2-TβRI-binding interface. Since the L3 loop is a part of the newly identified PI(4,5)P2-binding site, we checked if these PI(4,5)P2-binding residues are also involved in the Smad2-TβRI interaction using two fluorescein-labeled synthetic peptides derived from the GS region (i.e., GS peptide: fluorescein-aminohexanoyl (F-Ahx)-YDMTTpSGpSGpSGLPLL) and the L45 loop (i.e., L45 peptide: F-Ahx-ADNKDNGT), respectively. In particular, the GS peptide represents the GS motif triply phosphorylated by TβRII. We then measured binding to Smad2 WT and mutants to these peptides by fluorescence anisotropy according to our established protocol ([21]). […] We thus primarily used the GS peptide to assess the effects of mutations on the Smad2-TβRI interaction. […] They also yielded distinct structural variants for further functional studies. Specifically, W422A and Y426A could serve as specific PI(4,5)P2 binding-compromised mutants and K420A as a predominantly TβRI binding-compromised mutant. R427A/R428A could also serve as a PI(4,5)P2 and TβRI binding-compromised mutant, whereas E425K as a PI(4,5)P2 and TβRI binding-enhanced mutant.
# Figure 3 Affinity of Smad2 WT and mutants for TβRI-derived peptides determined by fluorescence anisotropy.A, binding of Smad2 WT (black), W422A (red), Y420A (cyan), R427A/R428A (green), K420A (blue), and E425K (orange) to the GS peptide (F-Ahx-YDMTTpSGpSGpSGLPLL). […] B, binding of Smad2 WT (black), W422A (red), Y420A (cyan), R427A/R428A (green), K420A (blue), and E425K (orange) to the L45 loop peptide (F-Ahx-DNKDNGT). C, effects of 50 μM POPC/POPS/PI(4,5)P2 (77:20:3) LUVs on binding of Smad2 to the GS peptide. The presence of vesicles (orange) raises the Kd value from 20 ± 6 to 60 ± 7 nM. The peptide concentration was fixed at 2.5 nM, and the Smad2 concentration was varied from 0 to 150 μM. The experimentally observed anisotropy (A) values were normalized (Anorm) using the equation: Anorm = (A − Amin)/(Amax − Amin) where Amax and Amin are maximal and minimal A values, respectively, for each measurement. The plots of Anormversus [Smad2] were analyzed by the nonlinear least-squares analysis using the equation: Anorm = 1/(1 + Kd/[Smad2]).
# The fluorescein-6-aminohexanoyl (F-Ahx)-labeled TβRI GS region peptide (F-Ahx-YDMTTpSGpSGpSGLPLL) was dissolved in dimethyl sulfoxide to yield 1 mg/ml stock solution, F-Ahx-labeled TβRI L45 loop region peptide (F-Ahx-ADNKDNGT) was dissolved in a 3:1 mixture of water and acetonitrile to yield 2.5 mg/ml stock solution. Both peptide solutions were diluted to 1 to 10 μM with 20 mM Tris buffer, pH 7.9, containing 160 mM NaCl for binding studies. In total, 300 μl of the Smad2 (WT or mutant) solution (0–250 μM) was added to a series of 1.5 ml microcentrifuge containing the peptide solution (2.5 μM). After 10-min incubation in the dark, the mixture was transferred to a quartz cuvette with 2-mm path length and fluorescence anisotropy (r) was measured with excitation and emission wavelengths set at 485 and 535 nm, respectively, using Horiba Flurolog-3 spectrofluorometer. Since Po >> Pepo under our conditions, the Kd for the Smad2-peptide binding was determined by the nonlinear least-squares analysis of the binding isotherm using the Equation 1:(1) Pepbound/Pep0=Δr/Δrmax=1/1+kd/P0 where Pepbound, Pep0, and P0 indicate the concentration of bound peptide, total peptide, and total Smad2, respectively, and Δr and Δrmax are the anisotropy change for each P0 and the maximal Δr, respectively.
Molecule,L45 peptide affinity relative to WT,Kd [µM]
B1,WT-like affinity,67 ± 6
B2,slightly lower affinity,75 ± 11
B3,,66 ± 4
B4,WT-like affinity,70 ± 7
B5,lowest affinity,100 ± 16
B6,slightly higher affinity,55 ± 3
